Assay: soluble on expression in E. coli; label from the status in PepcDB or PDB records

| Sequence | soluble on expression in E. coli |
| --- | --- |
| MGSDKIHHHHHHMTICYNFAYLDEGTKKKIRRTLLKAVAIPGHQIPFASREMPLPYGWGTGGIQVTAAVIGPEDILKVIDQGSDDTTNAVSIRNFFRSTTGVRTTTSTREATLIQTRHRIPETPLHAGQMLIYQVPMPEPLFKLEPRVSETIALHAMADYSLMYLKLYDQITRYGRIAIGYEYPVIVHDRYLTSSSPIPAYDVPKMHMSPALQLFGAGREKRLYAIPPYTRVIPLDFTDYPFDPVNTWQPCALCGAVESYKDEIVIDDAGNRQFICSDTDFCEHRR | not soluble |
| MSLKGKITLFFTALCFGLTGCIAPPKGLEKERFSINSYREISPQDLTCHCKTVRLGGKIVNTTVLANQTKIEVLSLPVSSISAKPFVELQSDGRFIVYFNGFVEPENLKERYITVGGQLAGTEKGKIEQADYTYPVVQADKYRIWTLSTTYDYPTDDWDEDDDWGFFRWRHRLWYVQPEIHYYLNEGGSHHHHHH | soluble |
| MTQPDRGKDRAGRRTKRFLTPSEKYEIWLQLVRQEVTIAEAAEQQQVDRSTIMRIRTVAKEGALAALAASKPGVAAAQRDYEMEAAKAEIARLSEAVKQMAVKLTLVEGKGGWA | not soluble |
| MANIYLNIEADSAQELKEILSQLATDNVVEVTQSLNTADKKATEEVEKAAKKEPAKKKKATAKKKEEVSTASTSDTEPSKTGEKVAPTDSETEEVSATADLHLGATKADVQEAMRKAMDKGKRPMIKTCFSRYNAEKLSDLKEEHYGKFITDLETLVGE | not soluble |
| ELGIKRESKLEFKLWYDDEKTPEALVFVVQGMGDDISSIQYVGDYMVRQFNTAVVGVNYHCIGNRPQTGSSFFMDDIDKLILKASCEAADIKLPYDVDKIQDYKAMSEIFHFVNNQIVEGKQKGNFTPNYFLNLHVSLQPTKNEYQNFGIMQAQDLLNVALYLKKHAPFDTMGGGIPIIMIGGSHGGYLAHLAAKIAPWLVDGVLDNSAYAKFLWRVVGFGKEIDFMQYSEFATFDFFHHIKTHCSTKTFWTSNSSSPRFFSPARRKIRNLLEEDHLLKQSKCLKTCFISYHSLYDEYVSLKEKTMFYEELEKLGFDVTLHSIT | not soluble |
| GQQINIHKPPIPERVQTIQGQVLFTKDDIVHGQQVWQSIGGQQIGSVWGHGSYVAPDWTADWLHREATIMLDSWAQEQGHEHYSDLPAEQQAALKERLKKTMRSNTYDAQTGTITLDDLRVDAMRSNAQYYSELFRDGHEHYAIPQNALNDKAAADDMTAFFWWTSWSASTNAPDSDISYTQNWPHEPLIDNAPPTGNI | not soluble |
| MRVDIVPVGDVPAHVKRQASSSLRSVYDCEVVVASEQDVPTAAYDEARSQYRAAEFIDTATRATSGDKTIAITPHDLFYRRRNYVFGLAYLDGRGCVVSTYRLQTSSDGGFSNRSSSDVFDDRVRKEVVHELGHTLGLEHCDNNRCAMNFSPTVREVDRKEENLCGSCQRTVFLEHHHHHH | not soluble |
| MSLTDLTKANEWLKDADAVIVTAGNGMAKEEGLDILSEENFDNQFGEIAEKYDVHTIGDALDKEFDSWEEKWTFWSKLINEYSLQYEKSENMKALEKLLEDKEYFIATSTFAHFFENAGFNENRIFDAFGDWTKMQCSSGINHGQKDNREVVKQFLQGKGELPKCEDCGSPMELHMPLNAHFFPDTDANTRFRWFLTGNEEKNVVVLELGVDATSPQLLDPMVNLVQQFSNWHYIAADLANDNLPDDLKKRAIGFGSDTHETLMNLTKEGHHHHHH | soluble |
| MGSDKIHHHHHHMMQTDQRILLVGTPSERLSRLCCIFEFLGEQIDIITIEKLSTCLQETRFRALVISIDNMSADALKLVASQYPWQPILLFGHVGELQVSNVLGHIEEPLNYPQLTELLHFCQVYGQVKRPQVPTSANQTKLFRSLVGRSDGIANVRHLISQVATSDATVLVLGQSGTGKEVVARNIHYLSERRDGPFIPVNCGAIPPELLESELFGHEKGSFTGAISSRKGRFELAEGGTLFLDEIGDMPLQMQVKLLRVLQERVFERVGGTKTINADVRVVAATHRDLETMISSNEFREDLYYRLNVFPIEMPALSERKDDVPLLLQELVSRVYNEGRGKVRFTQRAIESLKEHAWSGNVRELSNLVERLTILYPGGLVDVNDLPIKYRHIDVPEYSVELSEEQQERDALASIFTSEEPVEIPETRFPSELPPEGVNLKDLLAELEIDMIRQALEQQDNVVARAAEMLGIRRTTLVEKMRKYGMTKE | not soluble |
| AKHLFTSESVSEGHPDKIADQISDAVLDAILEQDPKARVACETYVKTGMVLVGGEITTSAWVDIEEITRNTVREIGYVHSDMGFDANSCAVLSAIGKQSPDINQGVDRADPLEQGAGDQGLMFGYATNETDVLMPAPITYAHRLVQRQAEVRKNGTLPWLRPDAKSQVTFQYDDGKIVGIDAVVLSTQHSEEIDQKSLQEAVMEEIIKPILPAEWLTSATKFFINPTGRFVIGGPMGDCGLTGRKIIVDTYGGMARHGGGAFSGKDPSKVDRSAAYAARYVAKNIVAAGLADRCEIQVSYAIGVAEPTSIMVETFGTEKVPSEQLTLLVREFFDLRPYGLIQMLDLLHPIYKETAAYGHFGREHFPWEKTDKAQLLRDAAGLK | soluble |
| AHHHHHHGSVRIEVVDIEKPEGVEVIIGQGNFSIFTVDDLARALLTTVPGIKFGIAMNEAKPQLTRYTGNDPELEKLAAKNALKIGAGHVFVILMKNAYPINVLNTIKNHPAVAMVYGASENPFQVIVAETELGRAVIGVVDGKAATKIETEEQKKERRELVEKIGYKID | not soluble |
| MATQLLMPKATAVWLVDNTALTFDQIAEFCKLHVLEVKAIADGEAAYGIKGLDPISSGQLTRSEIARVEADKNARLKISQSKVHIPEKKRKGARYIPLSRRQDRPNGILWLVTNHPELKDAQIARLIGTTKGTIEQIRNRTHWNSANLVALDPVGLGLCLQIDLDIELKRAAKNRPLSNEEDKSLLPASVTENVAIHEKEHEQDFNKNFDADKVFAKLNALQKNRENDASTELEHHHHHH | soluble |
| MAVESRVTQEEIKKEPEKPIDREKTCPLLLRVFTTNNGRHHRMDEFSRGNVPSSELQIYTWMDATLKELTSLVKEVYPEARKKGTHFNFAIVFTDVKRPGYRVKEIGSTMSGRKGTDDSMTLQSQKFQIGDYLDIAITPPNRAPPTSGRMRPY | soluble |
| SMDSRLQRIHAEIKNSLKIDNLDVNRCIEALDELASLQVTMQQAQKHTEMITTLKKIRRFKVSQVIMEKSTMLYNKFKNMFLVGEGDSVLEVLFQ | soluble |
| AHHHHHHGSVVKRTMTKKFLEEAFAGESMAHMRYLIFAEKAEQEGFPNIAKLFRAIAYAEFVHAKNHFIALGKLGKTPENLQMGIEGETFEVEEMYPVYNKAAEFQGEKEAVRTTHYALEAEKIHAELYRKAKEKAEKGEDIEIKKVYICPICGYTAVDEAPEYCPVCGAPKEKFVVFE | soluble |
| MGRIKRGLDYFPMSTSFMHDRMVRRIMRREGDSAFATLVETLSYIYAGKGYYISVGDEFYEELVDSLYSTELDDVKRIISLSVEYGLFDAGLFRQYNILTSADIQRQYLFITKRRSSALIEPDYCLLESEEITSYRSSQSGKSSTDDSLDSECAEALNGDADHKTACTVTSSFDSVTMEDEIATSGTQNKRKQIKINQNKVNHLPNPPQGGDEGGKYLKSRTAVTQEDIDCLQPPCDGVQRNFQGLTDNLRLYKVPPSEQYAIILKSNFGAIGNPVWKGFNTIRGSNGKIRLPGHYLLSIIN | not soluble |
| MGSDKIHHHHHHMNHIMLGTTNISIFPLVFGTLPLGPLQAGLSPSEGGRLIRHALEHGVTMIDTATLYDTYPHVREGIAGWQGDVTIVTKTHANDGPTARAHVEKGLRELGRERLDIVHLHGARVADPFSDRADVLAELLRMKDEGKIGHVGLSSHYICAILKAADHPEIEVVHPLINRTGMGILDGSAAEMAEAIAACARAGKGVYAMKALAGGNLIAEARASLAYVRGLEGVHGVAIGMLSEAEVEANIALFSGNAPEDEVWRQLESRRRKLRIMENFCKGCGGCVEACASGALTVVNGKAVLDEAACILCGYCAASCPEFIIRVV | not soluble |
| MSLLNKMRCSVSAEVYGEWNKKKNFVAPVYEKDEGQKEQLERILRQSFLFNSLDEKDLNTVILAMQEKKIEASTCLIREGDDGECLYIVQSGELNCSKLIDGEERVVKVVGPGDAFGELALLYNAPRAATVTSVSACDLWELGRDTFNAIVKDAATKRRSMYDSFLKSVHILDGMDAYERGKVADALRTEMFTDGAYIVRQGELGDVFYIVEEGSAVATKSFGPGQPPIEVKKYQAGDYFGELALINEEPRAANVIAHGICKVACLERKSFKRLMGSVQDLLSKKASDLLTMAEEGHHHHHH | soluble |
| MGREFLDLFEQWAESYDQSVEGYDEQYRDVFAGYDRILSTVADKAGQVVLEFGIGTGNLTKKLLERGKTVYGIEPSAPMRKKAAEKLGERAVIMDGDFLQFPLPPEPIDTIASTYAFHHLTDAEKDEAIAKYSQLLHSGGKIVFADTAFRDKEAFRQTVEAARARGFHDLADDLEREYYTTLDVLASLFANHGFSVSFAQQNAFVWVMEAVKQTTLEHHHHHH | soluble |
| MSLALVYSRALSGMNAPLVEVEAHLANGLPHFNIVGLPDMEVKESRDRVRAAIIQSGFEFPAKKITVNLAPADLPKESGRFDLPIAIGILAASGQVAPEKLEEYEFAGELALSGLLRPVRGALAMAWQGMQAKRAFVLPEENAGQAAVMRGITVYGARSLGEVAAHLNGIEPLAQTECQVPQMPFEHGGQPDLCDVKGQHTARLALEIAAAGGHSLLMMGPPGTGKSMLSQRLPGILPPLTEDELVEVWALRSLLPNHQQQLDSNRPFRSPHHSASAAAMVGGGSDPRPGEISLAHHGVLFLDELPEFDRKVLEVLREPLENGEIHISRAARQAVYPAKFQLVAAMNPCPCGYLGHPVKPCRCTPESVARYRSKISGPLLDRIDLTIEVPSLSAAELMQQEAGESSASVLERVIAARDKQYARQGKVNAALSVSELDTSARIQKEAQEALGGLLEKLSLSARSFHRIMRVARTLADLAGDEEVGRSHVMKAIGFRRAL | not soluble |
| MGTKQYKDGTYYAEADDFDESGWKDTVTIEVKNGKIVSVDWNAINKDGGDDKDTLSRNGGYKMVEYGGAQAEWHEQAEKVEAYLVEKQDPTDIKYKDNDGHTDAISGATIKVKKFFDLAQKALKDAEKLEHHHHHH | soluble |
| MMSDRDYTLIIDKSGSMSTPDQAGGRSRWEIAQESTLALARKCEQFDPDGITVYLFSGKFKRYDDVTSAKVAQIFLENDPAGTTNLAGVLQDALNNYFQRKAAGKTKPNGETILVITDGEPDDRKAVFETIIHATRQMERDEELGISMIQVGSDAQATKFLKALDDQLQSVGAKFDICDTITLEDLEDMSLADVLMNAITDLEHHHHHH | soluble |
| MVVSYSDSTPFGERISDSLKETQKLHTMQLNLGKVCNLACRHCHVEAGPNRREQMSQEVMKKALELFVRHGFETLDITGGAPEMNPHFEWLIHEGSKVASRLIVRTNLVILKESPWEHLAEFYAKHKVELVASLPEVSEEEVDRVRGRGVYGDSIEVIKRLNALGYGKNPDLKLDFVYNPSGPFLPPRVMELERLYKEQLFEKEEIFFHRLLSMNNIPIGRFRDSLERSGELLEYETLLRTHFNPSATPHLMCRSQISVSYEGRIYDCDFNQMLSLEAQGAKSLEEMLIQKSLKRRVVFGEHCYACTAGLGSSCQGVIAPEPL | not soluble |
| MENFPIISLDKVNGVERAATMEMIKDACENWGFFELVNHGIPREVMDTVEKMTKGHYKKCMEQRFKELVASKALEGVQAEVTDMDWESTFFLKHLPISNISEVPDLDEEYREVMRDFAKRLEKLAEELLDLLCENLGLEKGYLKNAFYGSKGPNFGTKVSNYPPCPKPDLIKGLRAHTDAGGIILLFQDDKVSGLQLLKDGQWIDVPPMRHSIVVNLGDQLEVITNGKYKSVMHRVIAQKDGARMSLASFYNPGSDAVIYPAPALVEKEAEENKQVYPKFVFDDYMKLYAGLKFQAKEPRFEAMKAMETDVKMDPIATV | soluble |
